One data set deals with saliva RNases. Kind of data set: RNase activity assay: cell line RNA incubated with treated saliva, read on Agilent TapeStation. In kind it is biochemical, human. More on the design: key: Pass (green) indicating sufficient RNase inactivation; Partial Pass (yellow) indicating partial RNase inactivation; Fail (red) indicating incomplete RNase inactivation. The procedure:
FIG. 27. Example of saliva RNase activity assays assayed on TapeStation High Sensitivity RNA ScreenTapes (5067; Agilent). Results from three independent assays are shown. Lanes 1-3 (left to right) are experimental controls including 500 μg RNA in RNase free water, untreated saliva without added cell line RNA, and untreated saliva incubated with cell line RNA. Lanes labeled “Incomplete RNase Inactivation” contain no ribosomal RNA bands, indicating RNase activity is present. Lanes labeled “Sufficient RNase Inactivation” contain sharp ribosomal bands (similar to RNA in water), indicating RNases have been inactivated. gDNA=genomic DNA.
To screen for chemical and protein-based reagents that inhibit saliva RNases, we developed an RNase activity assay in which purified cell line RNA was incubated for 30 min at 37° C. with saliva samples after treatment with potential reagents for RNase inhibition (FIG. 2.5.3). After incubation, RNA was purified and analyzed on an Agilent TapeStation. Sharpness of the eukaryotic ribosomal RNA bands (28S and 18S) were compared to determine RNase activity in the presence of various inhibitors. In addition, the Agilent TapeStation calculates an RNA Integrity Score (RIN) as a measure of RNA quality (RIN of 10-fully intact RNA, RIN of 1=fully degraded RNA), however contaminating nucleic acid (e.g., 16S and 23S rRNA from bacteria) interferes with this calculation.
To screen for chemical and protein-based reagents that inhibit saliva RNases, we developed an RNase activity assay in which purified cell line RNA was incubated for 30 min at 37° C. with saliva samples after treatment with potential reagents for RNase inhibition (FIG. 2.5.3). After incubation, RNA was purified and analyzed on an Agilent TapeStation. Sharpness of the eukaryotic ribosomal RNA bands (28S and 18S) were compared to determine RNase activity in the presence of various inhibitors. […]

The test system of a further data set is RNase activity in saliva. Briefly: RNase Alert Assay on saliva samples. In kind it is biochemical, human. The protocol: FIGS. 3A-D. Optimizing and measuring RNase inhibition by murine RNase Inhibitor (mRI). (A) Diagram of the RNase Alert assay. A quenched fluorescent ssRNA probe reports RNase activity when the quencher and fluorophore are physically separated by RNase degradation. Data is collected immediately after saliva is added to the assay and the RNase activity is calculated from a linear slope of the first 90 second of measurements. (B) RNase activity in five individual saliva samples with or without addition of 4 U/μl mRI. (C) RT-qPCR data for a panel of 12 biomarkers indicating the relative abundance of each biomarker at the indicated time after lysis. Each timepoint is from a pooled saliva sample run through a separate device. Delta Ct values were normalized to the 0 second timepoint. Horizontal bars are mean+/−standard deviation. (D) RNase activity in four saliva samples before and after rehydrating an amplification pad containing 4 U/μl of lyophilized mRI. Saliva in rehydrated pads went through a 20-minute RPA incubation at 39° C. prior to addition to the RNase Alert assay showing that RNase inhibition is long-lived. Ct=Cycle Threshold. […]
To confirm that lyophilized mRI in the amplification pad can rehydrate and inhibit saliva RNases, four amplification pads were rehydrated with saliva and the contents of the rehydrated pads were measured in the RNase Alert Assay (FIG. 3D).

The next data set relates to RT-RPA reactions. Briefly: RT-RPA interference (compatibility) testing of lysis and RNase inhibitor reagents, agarose gel. In kind it is biochemical. On the set-up: key: Pass (green) indicates that reagents did not interfere with RT-RPA; Partial Pass: Partial pass (yellow) indicates that reagents had partial interference in RT-RPA; Fail (red) indicates reagents completely interfered with RT-RPA reactions. To be noted: 4 U/μl final in RT-RPA reaction. The procedure:
FIG. 28. Reagent interference testing in RT-RPA. Lysis and RNase inhibitor reagents tested in RT-RPA using cDNA and RNA templates. RT-RPA reactions were prepared with varying concentrations of reagents, as labeled above (final concentrations in a 20 μl RT-RPA reaction are reported). Amplification products were run on a 2% agarose gel and band intensities were compared to control (No added reagent) reactions. Reactions labeled in red contain no reverse transcriptase. The expected size of the CXCL8 amplicon is indicated to the left of the gel. GuHCI=Guanidine hydrochloride, Triton=Triton X-100.
Reagents under consideration for the device were tested for compatibility with RT-RPA at the concentrations expected to be required for lysis. To test for interference, lysis or RNase inhibitor reagents were spiked into RT-RPA reactions with purified cell line RNA or cDNA as a template. Reactions were analyzed by agarose gel for the presence or absence of amplified products. […]

B1: NEB RI, murine: murine RNase Inhibitor (M0314; New England BioLabs) (protein, UniProt Q91VI7 1-456, looked up)
Ribonuclease inhibitor: MSLDIQCEQLSDARWTELLPLIQQYEVVRLDDCGLTEVRCKDISSAVQANPALTELSLRTNELGDGGVGLVLQGLQNPTCKIQKLSLQNCGLTEAGCGILPGMLRSLSTLRELHLNDNPMGDAGLKLLCEGLQDPQCRLEKLQLEYCNLTATSCEPLASVLRVKADFKELVLSNNDLHEPGVRILCQGLKDSACQLESLKLENCGITAANCKDLCDVVASKASLQELDLSSNKLGNAGIAALCPGLLLPSCKLRTLWLWECDITAEGCKDLCRVLRAKQSLKELSLASNELKDEGARLLCESLLEPGCQLESLWIKTCSLTAASCPYFCSVLTKSRSLLELQMSSNPLGDEGVQELCKALSQPDTVLRELWLGDCDVTNSGCSSLANVLLANRSLRELDLSNNCMGGPGVLQLLESLKQPSCTLQQLVLYDIYWTNEVEEQLRALEEERPSLRIIS
With B1, the “Inactivation of saliva RNases, Result” value in the data set on saliva RNases (4 U/μl) is “Partial”; with saliva RNases (8 U/μl), “Pass”. In addition, the “RNase activity in saliva samples” value with RNase activity in saliva (4 U/μL added, five donor saliva samples) is recorded as “reduced the RNase activity in all five samples to negligible amounts”. Besides, the “Inhibition of RNase activity” value in the data set on RNase activity in saliva (lyophilized in amplification pad, rehydrated with saliva, four pads) was “Nearly complete inhibition of RNase activity”. In the data set with RT-RPA reactions, the “Compatibility in RT-RPA, Result” value is recorded as “Pass”.

B2: Proteinase K: listed under Protein RNase Inhibitors (protein, UniProt P06873 106-384, looked up)
Proteinase K: AAQTNAPWGLARISSTSPGTSTYYYDESAGQGSCVYVIDTGIEASHPEFEGRAQMVKTYYYSSRDGNGHGTHCAGTVGSRTYGVAKKTQLFGVKVLDDNGSGQYSTIIAGMDFVASDKNNRNCPKGVVASLSLGGGYSSSVNSAAARLQSSGVMVAVAAGNNNADARNYSPASEPSVCTVGASDRYDRRSSFSNYGSVLDIFGPGTSILSTWIGGSTRSISGTSMATPHVAGLAAYLMTLGKTTAASACRYIADTANKGDLSNIPFGTVNLLAYNNYQA
Regarding B2, in the data set on saliva RNases (50 μg/ml and 2.5 mg/ml), the “Inactivation of saliva RNases, Result” value was “Fail”.
